The target of this assay is microtubules polymerized from porcine tubulin (porcine) (UniProt Q2XVP4). Description: single-molecule TIRF microscopy on microtubules.

Kif3A^ΔC103-Kif3B, sequence (Q9Y496 1-596, stated change not applied): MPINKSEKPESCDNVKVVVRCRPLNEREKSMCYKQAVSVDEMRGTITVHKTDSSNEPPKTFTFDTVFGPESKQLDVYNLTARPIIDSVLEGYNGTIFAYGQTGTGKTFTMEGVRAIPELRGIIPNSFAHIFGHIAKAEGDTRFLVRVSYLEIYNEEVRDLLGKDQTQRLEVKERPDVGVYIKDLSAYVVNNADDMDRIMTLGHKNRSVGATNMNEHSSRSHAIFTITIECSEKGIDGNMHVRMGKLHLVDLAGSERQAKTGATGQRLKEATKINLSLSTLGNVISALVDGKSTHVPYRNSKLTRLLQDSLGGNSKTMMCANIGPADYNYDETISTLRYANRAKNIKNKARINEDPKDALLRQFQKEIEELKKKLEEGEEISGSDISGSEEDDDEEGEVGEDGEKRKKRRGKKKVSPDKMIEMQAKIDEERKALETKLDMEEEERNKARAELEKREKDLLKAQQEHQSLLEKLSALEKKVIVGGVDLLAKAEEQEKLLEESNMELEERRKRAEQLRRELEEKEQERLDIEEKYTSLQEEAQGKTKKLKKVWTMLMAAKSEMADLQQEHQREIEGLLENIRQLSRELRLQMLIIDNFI
Kif3A^ΔC103-Kif3B, sequence (O15066 whole entry, stated change not applied): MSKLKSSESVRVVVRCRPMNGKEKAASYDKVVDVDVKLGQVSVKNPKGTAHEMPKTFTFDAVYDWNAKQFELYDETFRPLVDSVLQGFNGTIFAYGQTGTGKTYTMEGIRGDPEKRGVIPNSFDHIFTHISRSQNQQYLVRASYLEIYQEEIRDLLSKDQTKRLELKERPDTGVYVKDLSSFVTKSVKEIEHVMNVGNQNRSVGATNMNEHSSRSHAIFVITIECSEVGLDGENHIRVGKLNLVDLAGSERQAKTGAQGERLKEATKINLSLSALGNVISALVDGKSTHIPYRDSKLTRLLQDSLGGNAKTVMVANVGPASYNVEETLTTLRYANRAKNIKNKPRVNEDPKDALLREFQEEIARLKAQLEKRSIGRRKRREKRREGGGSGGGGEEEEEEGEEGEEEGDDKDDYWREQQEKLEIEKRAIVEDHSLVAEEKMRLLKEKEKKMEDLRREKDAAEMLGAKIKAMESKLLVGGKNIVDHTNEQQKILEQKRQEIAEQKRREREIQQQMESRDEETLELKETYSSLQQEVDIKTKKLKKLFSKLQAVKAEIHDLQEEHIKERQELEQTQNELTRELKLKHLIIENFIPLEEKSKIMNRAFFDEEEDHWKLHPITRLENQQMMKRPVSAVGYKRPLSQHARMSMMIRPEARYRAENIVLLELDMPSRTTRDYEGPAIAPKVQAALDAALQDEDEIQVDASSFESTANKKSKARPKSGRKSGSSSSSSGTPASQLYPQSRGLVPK
Kif3A^ΔC89-Kif3B, sequence (Q9Y496 1-610, stated change not applied): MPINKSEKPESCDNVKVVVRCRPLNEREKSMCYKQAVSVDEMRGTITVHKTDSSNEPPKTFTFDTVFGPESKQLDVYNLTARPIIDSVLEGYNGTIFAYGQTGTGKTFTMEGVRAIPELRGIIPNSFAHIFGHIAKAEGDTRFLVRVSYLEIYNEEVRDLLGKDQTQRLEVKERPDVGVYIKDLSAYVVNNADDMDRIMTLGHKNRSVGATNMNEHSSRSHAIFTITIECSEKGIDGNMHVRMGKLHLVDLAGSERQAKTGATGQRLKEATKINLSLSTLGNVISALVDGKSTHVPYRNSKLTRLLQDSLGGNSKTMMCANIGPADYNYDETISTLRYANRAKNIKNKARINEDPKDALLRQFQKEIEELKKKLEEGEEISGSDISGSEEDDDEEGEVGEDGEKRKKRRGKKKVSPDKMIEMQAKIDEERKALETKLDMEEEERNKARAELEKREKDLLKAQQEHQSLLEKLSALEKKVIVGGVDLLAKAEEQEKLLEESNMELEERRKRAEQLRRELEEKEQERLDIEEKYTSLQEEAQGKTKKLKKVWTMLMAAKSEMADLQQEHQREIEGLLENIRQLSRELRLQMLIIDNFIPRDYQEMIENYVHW
Kif3A^ΔC89-Kif3B, sequence (O15066 whole entry, stated change not applied): as the sequence (O15066 whole entry, stated change not applied) above

“Kif3A^ΔC89-Kif3B (from UniProt Q9Y496 1-610; O15066 1-747) (complex)” gave a landing rate (μm^-1 nM^-1 min^-1) of 0.6. The figure for “Kif3A^ΔC103-Kif3B (from UniProt Q9Y496 1-596; O15066 1-747) (complex)” is 0.6.

Values taken from paper doi:10.1101/2024.10.14.618219.
